± gives the standard deviation.

The nature of this series: protein stability index of a GFP-peptide fusion (GPS, HEK-293T) (PSI 1-6); higher = more stable. As to conditions: c terminus: a fixed tail appended.
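Note: 24-mer peptide tiles fused after GFP, lentivirally expressed, FACS-sorted into six equal bins by GFP/DsRed ratio, decoded by Illumina sequencing, PSI is the read-weighted mean bin number.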

Consider RMDTPPPEERLEKQNEKLNNQEEE [CCDC89], for which the protein stability index is, setting by setting: (treatment: DMSO) 5.55 ± 0.29; (treatment: MLN4924 1 uM, 8 h) 5.48 ± 0.28.

For HGNSGHPLVLSYIDLSAWCYYCQA [HDAC6], the protein stability index (treatment: DMSO) was 2.73 ± 0.55 and the protein stability index (treatment: MLN4924 1 uM, 8 h) was 3.14 ± 0.58.

On to KWLDMLNNWDKWMAKKHKKIRLRC [TBC1D10A], for which the protein stability index is, setting by setting: (treatment: DMSO) 2.62 ± 0.72; (treatment: MLN4924 1 uM, 8 h) 2.27 ± 0.31.

With MEKATVPVAAATAAEGEGSPPAVA [ANKRD17], the protein stability index is, setting by setting: (treatment: DMSO) 5.67 ± 0.24; (treatment: MLN4924 1 uM, 8 h) 5.65 ± 0.11.

VVPPTPPVVKKKGVKRKADTTTPT [BRD3] returned a protein stability index (treatment: DMSO) of 4.9 ± 0.39 and a protein stability index (treatment: MLN4924 1 uM, 8 h) of 4.82 ± 0.31.

Regarding ERGVEGDFLIRDSESSPSDFSVSL [NCK2], the protein stability index is 4.37 ± 0.2 (treatment: DMSO) and 4.26 ± 0.25 (treatment: MLN4924 1 uM, 8 h).

Turning to MAAGSTTLHAVEKLQVRLATKTEP [ELOA2], the protein stability index was found to be 3.62 ± 0.23 (treatment: DMSO) and 3.61 ± 0.36 (treatment: MLN4924 1 uM, 8 h).

With FVDFFVRLFTQLKFGVVQTSVEEC [CLCN6], the protein stability index is, setting by setting: (treatment: DMSO) 3.59 ± 0.27; (treatment: MLN4924 1 uM, 8 h) 3.07 ± 0.68.

With MTVKQYEAARLEYDAYRTDLEELS [ARFIP2], the protein stability index (treatment: DMSO) turned out to be 3.84 ± 0.19 and the protein stability index (treatment: MLN4924 1 uM, 8 h) stood at 3.97 ± 0.21.

Take GDVAIKLKFLEENKIKVMHKQLLL [ARFIP2]: the protein stability index worked out at 2.25 ± 0.31 (treatment: DMSO) and 2.12 ± 0.26 (treatment: MLN4924 1 uM, 8 h).

As for ERYFIPVSCFLTFNIFDWLGRSLT [SLC29A1], the protein stability index runs as follows: (treatment: DMSO) 2.77 ± 0.26; (treatment: MLN4924 1 uM, 8 h) 3.08 ± 0.46.

Take TVDIQNPDITSSRYRGLPAPGPSP [WAS]: the protein stability index reads like this: (treatment: DMSO) 4.49 ± 0.24; (treatment: MLN4924 1 uM, 8 h) 4.7 ± 0.18.

The sequence RFQLLYVACGMVHLLIPELGACVA [DNAAF3] came in with a protein stability index (treatment: DMSO) of 2.97 ± 0.17 and a protein stability index (treatment: MLN4924 1 uM, 8 h) of 3.39 ± 0.44.

In the case of QTVGVGRGRFTTYEIRVKTNLPIF [SNX3], the protein stability index by setting is: (treatment: DMSO) 2.83 ± 0.067; (treatment: MLN4924 1 uM, 8 h) 3.02 ± 0.22.

For the sequence LRRKEQLWEKLAKQGELPREVRRA [NOP53], the protein stability index came to 3.58 ± 0.18 (treatment: DMSO) and 3.7 ± 0.36 (treatment: MLN4924 1 uM, 8 h).

As for RVVDGTPCSPDSSSVCVQGRCIHA [ADAMTS4], the protein stability index runs as follows: (treatment: DMSO) 4.21 ± 0.35; (treatment: MLN4924 1 uM, 8 h) 4.39 ± 0.16.

Regarding CLMLLMGTVHCQIVSTQITRPSGN [PHTF1], the protein stability index was 3.12 ± 0.47 (treatment: DMSO) and 2.84 ± 0.47 (treatment: MLN4924 1 uM, 8 h).

For the sequence DLNKDKPVIPAAALAGYTGSGPIQ [ETS1], the protein stability index came out at 4.2 ± 0.13 (treatment: DMSO) and 4.14 ± 0.25 (treatment: MLN4924 1 uM, 8 h).

PTFMIAVFLPIVVLIFKSILFLPC [STEAP1] had a protein stability index (treatment: DMSO) of 3.22 ± 0.3 and a protein stability index (treatment: MLN4924 1 uM, 8 h) of 3.3 ± 0.46.

With VKRKMDGREYPDAQGFAADVRLMF [BRD3], the protein stability index is, setting by setting: (treatment: DMSO) 2.44 ± 0.043; (treatment: MLN4924 1 uM, 8 h) 2.58 ± 0.18.

MFRSKRSGLVRRLWRSRVVPDREE [SMAD6]: the protein stability index runs as follows: (treatment: DMSO) 2.67 ± 0.17; (treatment: MLN4924 1 uM, 8 h) 3.24 ± 0.5.

Take KYLTYDQLRKQKKKTGKSSTTALG [ELOA2]: the protein stability index came to 3.35 ± 0.083 (treatment: DMSO) and 3.79 ± 0.34 (treatment: MLN4924 1 uM, 8 h).

As for DKFQWLAGLAPPSLFARAMQVLVT [ANKRD9], the protein stability index is 2.56 ± 0.44 (treatment: DMSO) and 2.29 ± 0.15 (treatment: MLN4924 1 uM, 8 h).

With GRTHQWKPLYPDDYVHISSKPCDL [ADAMTSL2], the protein stability index reads like this: (treatment: DMSO) 3.25 ± 0.3; (treatment: MLN4924 1 uM, 8 h) 3.42 ± 0.093.

Regarding YLPRDFSTYRPLPDPSVWSRRYTE [MYORG], the protein stability index is, setting by setting: (treatment: DMSO) 2.64 ± 0.17; (treatment: MLN4924 1 uM, 8 h) 2.82 ± 0.29.

Regarding IYRHRIPSTICFGQGAARGFKSNK [ZNF511], the protein stability index is, setting by setting: (treatment: DMSO) 3 ± 0.37; (treatment: MLN4924 1 uM, 8 h) 3.64 ± 0.13.

Take PPPPRSRGPPRGLRGGRGGSGGTR [RBMX]: the protein stability index is 5.11 ± 0.5 (treatment: DMSO) and 4.96 ± 0.32 (treatment: MLN4924 1 uM, 8 h).

These data come from the supplement of paper PMC10567573.
